From patent publication US7084106

Target: cell surface class I HLA-ABC molecules on human umbilical cord vascular endothelial cells (HUVECs) (human)
Test: flow cytometry on HUVECs, isotype-matched mouse IgG2a control

percent binding (control threshold): < 1%
Substance: isotype-matched mouse IgG2a mAb (nonspecific mouse monoclonal antibody)
